From patent US20050164936A1

Assays:
Test in all cases: cell-based or functional assay
[1] = biological target: CC chemokine receptor CCR5 (human) (UniProt P51681)
[2] = biological target: T1, CC chemokine receptor CCR1 (UniProt P32246)
T1 sequence (looked up): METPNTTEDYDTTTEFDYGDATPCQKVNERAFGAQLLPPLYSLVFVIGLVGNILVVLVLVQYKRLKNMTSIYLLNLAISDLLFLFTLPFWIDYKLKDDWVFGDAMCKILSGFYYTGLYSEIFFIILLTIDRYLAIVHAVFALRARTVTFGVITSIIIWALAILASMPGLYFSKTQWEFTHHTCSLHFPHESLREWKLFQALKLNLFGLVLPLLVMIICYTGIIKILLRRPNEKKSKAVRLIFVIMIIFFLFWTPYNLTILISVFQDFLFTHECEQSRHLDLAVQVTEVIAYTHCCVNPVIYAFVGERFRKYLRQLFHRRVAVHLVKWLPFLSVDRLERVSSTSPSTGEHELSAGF

[3] = biological target: T2, CC chemokine receptor CCR3 (UniProt P51677)
T2 sequence (looked up): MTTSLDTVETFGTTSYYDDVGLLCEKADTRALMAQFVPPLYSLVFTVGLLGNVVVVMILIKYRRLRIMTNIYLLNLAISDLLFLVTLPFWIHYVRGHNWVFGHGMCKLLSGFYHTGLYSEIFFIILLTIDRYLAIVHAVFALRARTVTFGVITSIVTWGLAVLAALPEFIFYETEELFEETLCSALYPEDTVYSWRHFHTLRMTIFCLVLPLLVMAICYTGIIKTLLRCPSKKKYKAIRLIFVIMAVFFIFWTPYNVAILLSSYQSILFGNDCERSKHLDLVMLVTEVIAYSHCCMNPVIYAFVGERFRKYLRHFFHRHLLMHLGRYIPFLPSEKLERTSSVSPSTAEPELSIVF

RANTES(1-68) (human) = RANTES(1-68) (human) (UniProt P13501)
RANTES(1-68) (human), sequence (P13501 24-91 limits assumed): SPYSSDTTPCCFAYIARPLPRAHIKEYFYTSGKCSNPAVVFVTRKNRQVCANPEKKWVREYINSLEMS

RANTES(1-68), sequence (P13501 24-91 limits assumed): as above
RANTES(3-68), sequence (P13501 26-91 limits assumed): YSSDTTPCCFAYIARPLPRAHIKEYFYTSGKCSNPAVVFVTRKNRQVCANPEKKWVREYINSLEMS
CC chemokine receptor CCR5 (human), sequence (P51681 whole entry): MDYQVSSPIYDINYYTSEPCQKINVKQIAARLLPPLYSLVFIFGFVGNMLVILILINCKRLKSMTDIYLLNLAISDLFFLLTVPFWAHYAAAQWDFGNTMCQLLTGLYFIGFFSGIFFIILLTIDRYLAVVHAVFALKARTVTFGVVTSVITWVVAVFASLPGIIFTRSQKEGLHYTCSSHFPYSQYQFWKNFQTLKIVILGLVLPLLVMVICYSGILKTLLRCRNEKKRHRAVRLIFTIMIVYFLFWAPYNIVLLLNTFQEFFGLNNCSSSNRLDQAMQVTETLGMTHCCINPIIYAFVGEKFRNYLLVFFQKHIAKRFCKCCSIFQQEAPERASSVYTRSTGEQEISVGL
soluble CD26 (sCD26), sequence (P27487 39-766 limits assumed): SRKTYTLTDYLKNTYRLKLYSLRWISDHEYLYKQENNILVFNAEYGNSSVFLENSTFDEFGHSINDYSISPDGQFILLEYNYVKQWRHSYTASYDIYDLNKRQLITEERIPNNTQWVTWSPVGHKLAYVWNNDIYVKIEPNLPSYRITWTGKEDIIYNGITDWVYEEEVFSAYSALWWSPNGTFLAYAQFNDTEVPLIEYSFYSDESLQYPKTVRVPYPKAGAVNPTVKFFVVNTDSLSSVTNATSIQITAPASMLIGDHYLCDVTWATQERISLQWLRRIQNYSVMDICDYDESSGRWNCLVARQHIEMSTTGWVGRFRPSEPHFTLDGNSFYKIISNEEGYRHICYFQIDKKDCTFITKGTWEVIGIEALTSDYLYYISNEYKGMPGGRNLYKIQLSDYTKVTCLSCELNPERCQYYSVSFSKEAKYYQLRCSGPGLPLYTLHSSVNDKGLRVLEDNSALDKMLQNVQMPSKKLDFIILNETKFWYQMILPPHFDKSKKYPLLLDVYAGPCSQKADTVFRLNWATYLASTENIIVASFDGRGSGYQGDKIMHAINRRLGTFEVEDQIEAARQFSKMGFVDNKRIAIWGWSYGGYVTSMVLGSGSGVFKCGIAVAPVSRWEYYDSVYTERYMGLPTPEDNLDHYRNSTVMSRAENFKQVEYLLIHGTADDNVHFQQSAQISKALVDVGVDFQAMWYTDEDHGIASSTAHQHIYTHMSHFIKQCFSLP

Row | Substance | IC50, inhibition of HIV-1 BaL replication in HOS.CD4.CCR5 cells (p24 Ag ELISA) [1] [µM] | IC50, inhibition of HIV-1 BaL replication in U87.CD4.CCR5 cells (p24 Ag ELISA) [1] [µM] | IC90, inhibition of HIV-1 BaL replication in HOS.CD4.CCR5 cells (p24 Ag ELISA) [1] [µM] | IC90, inhibition of HIV-1 BaL replication in U87.CD4.CCR5 cells (p24 Ag ELISA) [1] [µM] | Increase in [Ca2+]i (nM) at 10 ng/ml, HOS cells transfected with CD4 and CCR5 [1] [nM] | Increase in [Ca2+]i (nM) at 30 ng/ml, HOS cells transfected with CD4 and CCR5 [1] [nM] | Increase in [Ca2+]i (nM) at 100 ng/ml, HOS cells transfected with CD4 and CCR5 [1] [nM] | Increase in [Ca2+]i (nM) at 300 ng/ml, HOS cells transfected with CD4 and CCR5 [1] [nM] | inhibition of the [Ca2+]i rise by a subsequent challenge with intact RANTES (100 ng/ml) after pre-incubation of CCR5-transfected cells with a 3- to 10-fold excess [1] [%] | Increase in [Ca2+]i (nM) at 10 ng/ml, HOS cells transfected with CD4 and CCR1 [2] [nM] | Increase in [Ca2+]i (nM) at 30 ng/ml, HOS cells transfected with CD4 and CCR1 [2] [nM] | Increase in [Ca2+]i (nM) at 100 ng/ml, HOS cells transfected with CD4 and CCR1 [2] [nM] | Increase in [Ca2+]i (nM) at 300 ng/ml, HOS cells transfected with CD4 and CCR1 [2] [nM] | concentration sufficient to increase [Ca2+]i in HOS cells transfected with CCR3 [3] [ng/mL] | concentration needed to increase [Ca2+]i in HOS cells transfected with CCR3 [3] [ng/mL] | IC50 of RANTES(1-68) against HIV-1 BaL in HOS.CD4.CCR5 cells when sCD26 at 50 U/l is added (p24 Ag ELISA) (RANTES(1-68) (human)) [µM]
1 | RANTES(1-68) (from UniProt P13501 24-91) (ligand) | > 0.13 | 0.021 | > 0.13 | > 0.13 | < 15 | 24 | 60 | 96 | 75 | < 16 | 25 | 100 | 133 | 100 |  | 
2 | RANTES(3-68) (from UniProt P13501 26-91) (ligand) | 0.0055 | 0.00065 | > 0.13 | 0.063 | < 15 | 56 | 76 | 119 | 75 |  | < 15 | < 15 | 19 |  | > 300 | 
3 | soluble CD26 (sCD26) (from UniProt P27487 39-766) (enzyme) |  |  |  |  |  |  |  |  |  |  |  |  |  |  |  | 0.013
